# Test results as given in US20200283478A1 (Genentech, published 2020).
# Bridge positions count the residues as written; N and C are the ends. Square brackets hold non-standard residues; d marks the D form. Ends that are not written are not given here. hArg = N=C(N)NCCCC[C@H](N)C(=O)O
# B1: Compound 231: Ac-ESYPGWNLV(homoR)IGLLR-NH2 (peptide)
# peptide: Ac-ESYPGWNLV[hArg]IGLLR-NH2
# SMILES: CC[C@H](C)[C@H](NC(=O)[C@H](CCCCNC(=N)N)NC(=O)[C@@H](NC(=O)[C@H](CC(C)C)NC(=O)[C@H](CC(N)=O)NC(=O)[C@H](Cc1c[nH]c2ccccc12)NC(=O)CNC(=O)[C@@H]1CCCN1C(=O)[C@H](Cc1ccc(O)cc1)NC(=O)[C@H](CO)NC(=O)[C@H](CCC(=O)O)NC(C)=O)C(C)C)C(=O)NCC(=O)N[C@@H](CC(C)C)C(=O)N[C@@H](CC(C)C)C(=O)N[C@@H](CCCNC(=N)N)C(N)=O
# B2: Compound 230: Ac-DSYPGWNLV(homoR)IGLLR-NH2 (peptide)
# peptide: Ac-DSYPGWNLV[hArg]IGLLR-NH2
# SMILES: CC[C@H](C)[C@H](NC(=O)[C@H](CCCCNC(=N)N)NC(=O)[C@@H](NC(=O)[C@H](CC(C)C)NC(=O)[C@H](CC(N)=O)NC(=O)[C@H](Cc1c[nH]c2ccccc12)NC(=O)CNC(=O)[C@@H]1CCCN1C(=O)[C@H](Cc1ccc(O)cc1)NC(=O)[C@H](CO)NC(=O)[C@H](CC(=O)O)NC(C)=O)C(C)C)C(=O)NCC(=O)N[C@@H](CC(C)C)C(=O)N[C@@H](CC(C)C)C(=O)N[C@@H](CCCNC(=N)N)C(N)=O
# B3: Compound 227: Ac-ESFPGWNLV(homoR)IGLLR-NH2 (peptide)
# peptide: Ac-ESFPGWNLV[hArg]IGLLR-NH2
# SMILES: CC[C@H](C)[C@H](NC(=O)[C@H](CCCCNC(=N)N)NC(=O)[C@@H](NC(=O)[C@H](CC(C)C)NC(=O)[C@H](CC(N)=O)NC(=O)[C@H](Cc1c[nH]c2ccccc12)NC(=O)CNC(=O)[C@@H]1CCCN1C(=O)[C@H](Cc1ccccc1)NC(=O)[C@H](CO)NC(=O)[C@H](CCC(=O)O)NC(C)=O)C(C)C)C(=O)NCC(=O)N[C@@H](CC(C)C)C(=O)N[C@@H](CC(C)C)C(=O)N[C@@H](CCCNC(=N)N)C(N)=O
# B4: Compound 229: Ac-MESFPGWNLV(homoR)IGLLR-NH2 (peptide)
# peptide: Ac-MESFPGWNLV[hArg]IGLLR-NH2
# SMILES: CC[C@H](C)[C@H](NC(=O)[C@H](CCCCNC(=N)N)NC(=O)[C@@H](NC(=O)[C@H](CC(C)C)NC(=O)[C@H](CC(N)=O)NC(=O)[C@H](Cc1c[nH]c2ccccc12)NC(=O)CNC(=O)[C@@H]1CCCN1C(=O)[C@H](Cc1ccccc1)NC(=O)[C@H](CO)NC(=O)[C@H](CCC(=O)O)NC(=O)[C@H](CCSC)NC(C)=O)C(C)C)C(=O)NCC(=O)N[C@@H](CC(C)C)C(=O)N[C@@H](CC(C)C)C(=O)N[C@@H](CCCNC(=N)N)C(N)=O
# B5: Compound 228: Ac-SFAFPGWNLV(homoR)IGLLR-NH2 (peptide)
# peptide: Ac-SFAFPGWNLV[hArg]IGLLR-NH2
# SMILES: CC[C@H](C)[C@H](NC(=O)[C@H](CCCCNC(=N)N)NC(=O)[C@@H](NC(=O)[C@H](CC(C)C)NC(=O)[C@H](CC(N)=O)NC(=O)[C@H](Cc1c[nH]c2ccccc12)NC(=O)CNC(=O)[C@@H]1CCCN1C(=O)[C@H](Cc1ccccc1)NC(=O)[C@H](C)NC(=O)[C@H](Cc1ccccc1)NC(=O)[C@H](CO)NC(C)=O)C(C)C)C(=O)NCC(=O)N[C@@H](CC(C)C)C(=O)N[C@@H](CC(C)C)C(=O)N[C@@H](CCCNC(=N)N)C(N)=O
# B6: Compound 19 (peptide)
# peptide: Ac-TVFTSWEEYLDWVGSGCRLPWNLQRIGLPC-NH2
# modifications: disulfide 17-30 (inferred)
# notes: Two Cys, disulfide-cyclized; also called Pep2-8p4; Pep2-8_K9gvpep4
# B7: K9gvpep7 (peptide)
# peptide: SGDLMPWNLVRIGLLR
# notes: synthetic; Compound 20 = Pep2-8_K9gvpep7
# B8: K9gvpep4 (peptide)
# peptide: SGCRLPWNLQRIGLPC
# modifications: not fully specified (bridges); cysteine pairing not given here
# notes: synthetic; Compound 19 = Pep2-8_K9gvpep4, the two N-terminal residues of K9gvpep4 being the SG of the GSG linker
# Target: T1, His-tagged, full-length human PCSK9 (proprotein convertase subtilisin/kexin type 9) (human, UniProt A8T644 31-152; Q8NBP7 153-692)
# T1 construct: also called His-PCSK9; C-terminal (His)8-tagged PCSK9
# Experiment: TR-FRET competition; His-PCSK9 with LDLR-Fc as competitor ligand
# T1 sequence (A8T644 31-152, chain 1 of 2): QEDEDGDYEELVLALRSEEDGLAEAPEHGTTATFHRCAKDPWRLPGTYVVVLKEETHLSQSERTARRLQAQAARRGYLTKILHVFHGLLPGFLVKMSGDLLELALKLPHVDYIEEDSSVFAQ
# T1 sequence (A8T644 other isoform, or with tags, fused parts or gaps, chain 2 of 2): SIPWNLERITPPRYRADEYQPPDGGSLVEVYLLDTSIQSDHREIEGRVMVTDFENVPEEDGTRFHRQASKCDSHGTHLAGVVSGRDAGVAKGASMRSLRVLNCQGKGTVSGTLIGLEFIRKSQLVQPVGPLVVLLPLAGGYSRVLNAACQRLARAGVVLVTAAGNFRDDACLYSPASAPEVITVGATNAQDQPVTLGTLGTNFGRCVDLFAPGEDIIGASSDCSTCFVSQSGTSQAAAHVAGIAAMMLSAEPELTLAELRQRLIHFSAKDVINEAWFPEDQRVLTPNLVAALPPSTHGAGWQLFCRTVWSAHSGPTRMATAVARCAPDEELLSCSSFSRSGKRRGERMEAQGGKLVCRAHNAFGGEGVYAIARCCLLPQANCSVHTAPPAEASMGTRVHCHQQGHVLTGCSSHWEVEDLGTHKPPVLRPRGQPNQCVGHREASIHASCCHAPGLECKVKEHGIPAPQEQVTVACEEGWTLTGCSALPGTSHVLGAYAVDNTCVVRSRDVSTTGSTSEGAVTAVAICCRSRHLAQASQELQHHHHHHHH
row,IC50 [nM],Binder
1,> 50000,Ac-WNLV[hArg]IGLLR-NH2 [Compound 192: Ac-WNLV(homoR)IGLLR-NH2]
2,> 50000,B1
3,> 50000,B2
4,> 50000,B3
5,25000,B4
6,30400,B5

# Target: T1, His-tagged, full-length human PCSK9 …
# Experiment: TR-FRET competition; His-PCSK9 with EGF(A)-Fc as competitor ligand
row,IC50 [nM],Binder
1,> 50000,Ac-WNLV[hArg]IGLLR-NH2 [Compound 192: Ac-WNLV(homoR)IGLLR-NH2]
2,15800,B1
3,24200,B2
4,23200,B3
5,8300,B4
6,13200,B5

# Target: T2, PCSK9Δhelix (human PCSK9 lacking the P' helix, His-tagged) (human, UniProt Q8NBP7 31-152; Q8NBP7 168-692)
# T2 construct: Construct M1-Q692 with an engineered TEV site (Y166 and R167 deleted, ENLYFQS inserted between R165 and A168); also called His-PCSK9Δhelix; C-terminal (His)8-tagged PCSK9Δhelix
# Experiment: SPR (Biacore), His-tagged PCSK9Δhelix captured on NTA chip
# T2 sequence (Q8NBP7 31-152, stated change not applied, chain 1 of 2): as the sequence (A8T644 31-152, chain 1 of 2) above
# T2 sequence (Q8NBP7 other isoform, or with tags, fused parts or gaps mutant, chain 2 of 2): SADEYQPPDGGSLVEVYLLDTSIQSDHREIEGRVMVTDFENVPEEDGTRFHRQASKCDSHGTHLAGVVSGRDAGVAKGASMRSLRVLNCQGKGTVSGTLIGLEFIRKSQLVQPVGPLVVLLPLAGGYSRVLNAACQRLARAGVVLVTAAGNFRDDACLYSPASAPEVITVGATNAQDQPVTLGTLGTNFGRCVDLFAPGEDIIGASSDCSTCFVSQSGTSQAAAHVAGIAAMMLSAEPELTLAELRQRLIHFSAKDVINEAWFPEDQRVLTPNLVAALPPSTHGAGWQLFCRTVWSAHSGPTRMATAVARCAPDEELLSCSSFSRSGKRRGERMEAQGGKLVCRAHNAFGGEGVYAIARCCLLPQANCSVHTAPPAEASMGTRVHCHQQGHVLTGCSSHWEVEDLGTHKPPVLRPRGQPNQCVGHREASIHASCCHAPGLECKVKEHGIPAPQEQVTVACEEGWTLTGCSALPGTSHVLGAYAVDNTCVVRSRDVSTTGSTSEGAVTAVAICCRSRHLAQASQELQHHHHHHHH
row,Kd [nM],Binder
1,1400,Ac-MPWNLVRIGLLR-NH2 [Compound 51: Ac-MPWNLVRIGLLR-NH2]
2,1000,Ac-WNLV[hArg]IGLLR-NH2 [Compound 192: Ac-WNLV(homoR)IGLLR-NH2]
3,1380,Ac-DLMPWNLVRIGLLR-NH2 [Compound 35: Ac-DLMPWNLVRIGLLR-NH2]
4,2100,Ac-PWNLVRIGLLR-NH2 [Compound 52: Ac-PWNLVRIGLLR-NH2]
5,14000,Ac-WNLVRIGLLR-NH2 [Compound 53: Ac-WNLVRIGLLR-NH2]
6,470,Ac-LMPWNLVRIGLLR-NH2 [Compound 50: Ac-LMPWNLVRIGLLR-NH2]

# Target: T3, PCSK9 (proprotein convertase subtilisin/kexin type 9), His-tagged, full-length (human, UniProt Q8NBP7 31-692)
# T3 construct: Captured by the His tag (SPR Methods 1 and 2), amine-coupled (Method 3), or His-tagged in TR-FRET; also called His-PCSK9
# Experiment: TR-FRET competition; competitor EGF(A)-Fc binding to His-PCSK9
# T3 sequence (Q8NBP7 31-692 limits assumed): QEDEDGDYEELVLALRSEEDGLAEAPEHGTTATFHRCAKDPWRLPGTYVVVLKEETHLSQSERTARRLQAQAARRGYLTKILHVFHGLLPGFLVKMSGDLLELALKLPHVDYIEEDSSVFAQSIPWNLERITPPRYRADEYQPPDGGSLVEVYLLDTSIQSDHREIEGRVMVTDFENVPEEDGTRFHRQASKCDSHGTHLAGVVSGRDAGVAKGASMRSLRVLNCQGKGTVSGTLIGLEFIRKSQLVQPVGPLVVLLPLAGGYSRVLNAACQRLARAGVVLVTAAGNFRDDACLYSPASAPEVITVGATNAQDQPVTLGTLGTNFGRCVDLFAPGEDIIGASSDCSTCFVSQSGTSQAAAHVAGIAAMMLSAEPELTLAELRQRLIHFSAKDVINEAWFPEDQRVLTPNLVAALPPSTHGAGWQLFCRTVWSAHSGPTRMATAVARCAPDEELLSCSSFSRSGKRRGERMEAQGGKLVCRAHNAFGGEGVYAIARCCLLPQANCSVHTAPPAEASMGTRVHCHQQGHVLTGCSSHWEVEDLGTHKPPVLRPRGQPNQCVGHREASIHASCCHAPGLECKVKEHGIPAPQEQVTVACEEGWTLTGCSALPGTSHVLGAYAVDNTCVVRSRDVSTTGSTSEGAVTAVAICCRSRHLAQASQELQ
row,IC50 [nM],Binder
1,340,"Ac-TVFTSWEEYLDWVGSGCWNLGRIGSQGC-NH2 (disulfide 17-28 (inferred), Two Cys, disulfide-cyclized) [Compound 11]"
2,190,"Ac-TVFTSWEEYLDWVGSGCWNLKRVGSQGC-NH2 (disulfide 17-28 (inferred), Two Cys, disulfide-cyclized) [Compound 12]"
3,10,"Ac-TVFTSWEEYLDWVGGSGCWNLKRIGSQGC-NH2 (disulfide 18-29 (inferred), Two Cys, disulfide-cyclized) [Compound 13]"
4,9,"Ac-TVFTSWEEYLDWVGSGGCWNLKRIGSQGC-NH2 (disulfide 18-29 (inferred), Two Cys, disulfide-cyclized) [Compound 14]"
5,9,B6
6,781,"Ac-TVFTSWEEYLDWVGSGGCRLPWNLQRIGLPC-NH2 (disulfide 18-31 (inferred), Two Cys, disulfide-cyclized) [Compound 25]"
7,471,"Ac-TVFTSWEEYLDWVGSGGCFLPWNLQRIGLLC-NH2 (disulfide 18-31 (inferred), Two Cys, disulfide-cyclized) [Compound 38]"

# Target: T2, PCSK9Δhelix (human PCSK9 lacking the P' …)
# Experiment: TR-FRET competition; His-PCSK9Δhelix with Ab20 as competitor ligand
row,IC50 [nM],Binder
1,5550,Ac-WNLV[hArg]IGLLR-NH2 [Compound 192: Ac-WNLV(homoR)IGLLR-NH2]
2,1490,B1
3,2420,B2
4,2510,B3
5,840,B4
6,1370,B5

# Target: T2, PCSK9Δhelix (human PCSK9 lacking the P' …)
# Experiment: as above
# Remark: another data set of the same source
row,IC50 [nM],Binder
1,6600,Ac-MPWNLVRIGLLR-NH2 [Compound 51: Ac-MPWNLVRIGLLR-NH2]
2,5600,Ac-WNLV[hArg]IGLLR-NH2 [Compound 192: Ac-WNLV(homoR)IGLLR-NH2]
3,7900,Ac-DLMPWNLVRIGLLR-NH2 [Compound 35: Ac-DLMPWNLVRIGLLR-NH2]
4,15900,Ac-PWNLVRIGLLR-NH2 [Compound 52: Ac-PWNLVRIGLLR-NH2]
5,52400,Ac-WNLVRIGLLR-NH2 [Compound 53: Ac-WNLVRIGLLR-NH2]
6,3600,Ac-LMPWNLVRIGLLR-NH2 [Compound 50: Ac-LMPWNLVRIGLLR-NH2]

# Target: T4, PCSK9Δhelix (human, UniProt Q8NBP7 31-152; Q8NBP7 168-692)
# T4 construct: Made by TEV cleavage of human PCSK9 M1-Q692 with an engineered TEV site; The new N-terminus of the catalytic domain is S-A168; also called His-PCSK9Δhelix; PCSK9 lacking the P' helix
# Experiment: SPR, Method 1 (Biacore T100, His-tagged target captured on NTA chip)
# T4 sequence (Q8NBP7 31-152, stated change not applied, chain 1 of 2): as the sequence (A8T644 31-152, chain 1 of 2) above
# T4 sequence (Q8NBP7 other isoform, or with tags, fused parts or gaps mutant, chain 2 of 2): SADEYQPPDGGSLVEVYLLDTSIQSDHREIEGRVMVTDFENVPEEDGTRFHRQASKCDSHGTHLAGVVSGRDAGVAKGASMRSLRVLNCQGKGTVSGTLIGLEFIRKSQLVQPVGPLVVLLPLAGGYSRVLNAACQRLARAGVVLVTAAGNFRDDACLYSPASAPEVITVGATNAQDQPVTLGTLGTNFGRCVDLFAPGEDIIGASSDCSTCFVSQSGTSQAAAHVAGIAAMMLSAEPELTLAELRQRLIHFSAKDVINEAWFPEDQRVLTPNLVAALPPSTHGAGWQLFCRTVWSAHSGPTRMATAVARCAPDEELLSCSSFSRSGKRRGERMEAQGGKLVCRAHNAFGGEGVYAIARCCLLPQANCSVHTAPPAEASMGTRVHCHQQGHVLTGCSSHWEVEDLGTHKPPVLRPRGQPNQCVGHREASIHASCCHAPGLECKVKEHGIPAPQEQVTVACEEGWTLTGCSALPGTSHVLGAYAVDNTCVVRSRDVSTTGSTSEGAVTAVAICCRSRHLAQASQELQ
row,Kd [nM],Binder
1,802,"H-SGCFIPWNLQRIGLLC-NH2 (disulfide 3-16 (inferred), Two Cys, disulfide-cyclized) [Compound 26]"
2,0.366,Ac-TVFTSWEEYLDWVGSGDLMPWNLVRIGLLR-NH2 (also called Pep2-8p7; Pep2-8_K9gvpep7) [Compound 20]
3,856,SGDLMPWNLVRIGLLR (Free N- and C-termini as printed) [Compound 28]
4,0.0989,B6

# Target: T3, PCSK9 (proprotein convertase …)
# Experiment: as above
row,Kd [nM],Binder
1,29000,"H-SGCFIPWNLQRIGLLC-NH2 (disulfide 3-16 (inferred), Two Cys, disulfide-cyclized) [Compound 26]"
2,5.56,Ac-TVFTSWEEYLDWVGSGDLMPWNLVRIGLLR-NH2 (also called Pep2-8p7; Pep2-8_K9gvpep7) [Compound 20]
3,46100,SGDLMPWNLVRIGLLR (Free N- and C-termini as printed) [Compound 28]
4,2.07,B6

# Target: T5, PCSK9Δhelix (human, Chemically biotinylated in the phage ELISAs; the site is not given.)
# T5 construct: construct M1-Q692 with engineered TEV site, cleaved by TEV; also called His-PCSK9Δhelix; open groove PCSK9Δhelix
# Experiment: phage competition ELISA: synthetic peptide against its phage-displayed counterpart
# T5 sequence (prodomain, as listed by the source mutant limits assumed, chain 1 of 2): as the sequence (A8T644 31-152, chain 1 of 2) above
row,IC50 [nM],Binder
1,914,B7
2,544,B8

# Target: T4, PCSK9Δhelix
# Experiment: TR-FRET competition; competitor Ab20 binding to His-PCSK9Δhelix
row,IC50 [nM],Binder
1,1,Ac-TVFTSWEEYLDWVGSGDLMPWNLVRIGLLR-NH2 (also called Pep2-8p7; Pep2-8_K9gvpep7) [Compound 20]

# Target: T4, PCSK9Δhelix
# Experiment: as above
# Remark: another data set of the same source
row,IC50 [nM],Binder
1,1,"Ac-TVFTSWEEYLDWVGGSGCWNLKRIGSQGC-NH2 (disulfide 18-29 (inferred), Two Cys, disulfide-cyclized) [Compound 13]"
2,1,"Ac-TVFTSWEEYLDWVGSGGCWNLKRIGSQGC-NH2 (disulfide 18-29 (inferred), Two Cys, disulfide-cyclized) [Compound 14]"
3,2,B6
4,83,"Ac-TVFTSWEEYLDWVGSGGCRLPWNLQRIGLPC-NH2 (disulfide 18-31 (inferred), Two Cys, disulfide-cyclized) [Compound 25]"
5,3,"Ac-TVFTSWEEYLDWVGSGGCFLPWNLQRIGLLC-NH2 (disulfide 18-31 (inferred), Two Cys, disulfide-cyclized) [Compound 38]"

# Target: T3, PCSK9 (proprotein convertase …)
# Experiment: TR-FRET competition; competitor EGF(A)-Fc binding to His-PCSK9
# Remark: another data set of the same source
row,IC50 [nM],Binder
1,37,Ac-TVFTSWEEYLDWVGSGDLMPWNLVRIGLLR-NH2 (also called Pep2-8p7; Pep2-8_K9gvpep7) [Compound 20]
